According to patent US20240368282A1 (BIOSCEPTRE AUST, published 2024):

Molecular target: T1, dysfunctional P2X7 receptor (human, UniProt Q99572 1-595)
T1 construct: Endogenous on cancer cell lines (MOLM-13, JeKo-1); also called nfP2X7; nfP2X7 receptor
T1 sequence: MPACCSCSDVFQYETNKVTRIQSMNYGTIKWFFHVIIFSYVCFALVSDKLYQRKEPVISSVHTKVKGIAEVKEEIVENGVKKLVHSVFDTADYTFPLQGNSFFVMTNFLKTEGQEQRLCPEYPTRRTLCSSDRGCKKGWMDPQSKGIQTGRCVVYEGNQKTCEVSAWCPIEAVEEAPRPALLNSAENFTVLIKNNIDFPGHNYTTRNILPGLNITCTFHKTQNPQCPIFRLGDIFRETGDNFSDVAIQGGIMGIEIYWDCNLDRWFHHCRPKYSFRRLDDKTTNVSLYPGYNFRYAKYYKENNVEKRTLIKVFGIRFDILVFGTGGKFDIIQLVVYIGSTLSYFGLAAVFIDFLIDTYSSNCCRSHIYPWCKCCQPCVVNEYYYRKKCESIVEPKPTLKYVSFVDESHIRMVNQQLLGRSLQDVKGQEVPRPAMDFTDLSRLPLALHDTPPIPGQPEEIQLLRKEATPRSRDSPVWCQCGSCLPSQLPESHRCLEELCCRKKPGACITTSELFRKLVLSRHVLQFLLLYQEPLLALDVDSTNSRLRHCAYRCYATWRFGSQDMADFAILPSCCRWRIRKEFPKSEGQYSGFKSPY
Assay: flow cytometry, anti-HIS-FITC, MOLM-13 cells
Procedure: Indirect staining of artificial proteins on MOLM-13 cells via anti-HIS staining. […] Histogram overlay of HIS-FITC positivity on MOLM-13. […] HIS-ab was used according to manufacturer with 1 μl per test, target cells were incubated with 50 μl of supernatant from Lenti-X™ 293T cells for 10 min at room temperature. Supernatant harvested 48 h after transfection.

binding result: binds
B1: Orchestration molecule OR2-3 (nfP2X7), IgG1 format (antibody, V domains shown)
VH: EVQLLESGGGLVQPGGSLRLSCAASGFTFRNHDMGWVRQAPGKGLEWVSAISGSGGSTYYANSVKGRFTISRDNSKNTLYLQMNSLRAEDTAVYYCAEPKPMDTEFDYRSPGTLVTVSS
VL: DIQMTQSPSSLSASVGDRVTITCRASQYIYDYLNWYQQKPGKAPKLLIYAASYLQSGVPSRFSGSGSGTDFTLTISSLQPEDFATYYCQQYHHPSTFGQGTKVEIKR
notes: Tested as supernatant; also called OR2 paired to OR3
